In US12006368 (SURROZEN OPERATING, dated 2024):
Blank lines part the entries; values can stand above or below the binder they belong to.

Tests used:
[1] = molecular target: T1, Fzd1 cysteine rich domain (CRD), C-terminally biotinylated (human, UniProt Q9UP38 101-230); experiment: BLI
Protocol: (§1) Binding kinetics of antibody fragments to a variety of Fzd cysteine rich domain (CRD) protein targets (Fzd1, Fzd2, Fzd3, Fzd4, Fzd5, Fzd6, Fzd7, Fzd8, Fzd9 and/or Fzd10 CRDs) was determined by bio-layer interferometry (BLI) using Octet Red 96 (PALL ForteBio, Fremont, CA) instruments at 30° C., 1000 rpm with streptavidin (SA) biosensors. C-terminal biotinylated Fzd CRD recombinant protein was diluted to 20 nM in the running buffer (PBS, 0.05% Tween-20, 0.5% BSA, pH 7.2) and captured to the SA biosensor until coupling length reached 0.2 nm. Following capture of the Fzd CRD, the SA biosensor with captured biotinylated-Fzd CRD was dipped into wells containing the relevant antibody fragment at […] (0, 1.37, 4.12, 12.4, 37, 111.1, 333.3, 1000 nM) in running buffer, plus a well with only running buffer as a reference channel. […] was determined by global fitting, 1:1 binding model according to manufacturer recommended settings.
(§2) Table 1B provides clone IDs, the sequence identifier number of the antibody heavy chain fragment and/or light chain fragment, if present, for illustrative clones. In certain embodiments, the Fzd binding domain is an Fab or was derived from an Fab, so the heavy chain of Table 1B includes VH and CH1 sequence, but not CH2 or CH3 sequences. In certain embodiments, the Fzd binding domain is a VHH or sdAb® or was derived from a VHH or sdAb, so Table 1B includes the VHH domain. […] The Kd values were determined by BLI as described above. Blank entries denote that the binding to the specific Fzd receptor has not yet been determined. The entry of "n.b." indicates no binding.

[2] = molecular target: Fzd2 cysteine rich domain (CRD), C-terminally biotinylated (human, UniProt Q14332 24-155); experiment: BLI
Protocol: as §1, §2

[3] = molecular target: T1, Fzd1 cysteine rich domain (CRD), …; experiment: BLI; *=Kd <=100 nM
Protocol: as §1
One antibody fragment, clone 001S-A04, was selected for alanine-scanning mutagenesis of CDRs, and the respective Fzd1 binding affinities of the various mutants were determined by Octet BLI as described in Example 1.

B1: 004S-D08 (Fab, V domains shown)
VH: QVQLVQSGAEVKKPGSSVKVSCKASGYTFTYRYLHWVRQAPGQGLEWMGGIIPIFGTANYAQKFQGRVTITADESTSTAYMELSSLRSEDTAVYYCATHDSSGYYSFDYWGQGTLVTVSS
VL: not shown
binding result [1]: no binding (tested: 1000 nM)
binding result [2]: no binding (tested: 1000 nM)

B2: 004S-F10 (Fab, V domains shown)
VH: EVQLVESGGGLVQPGGSLRLSCAASGFTFSDHYMSWVRQAPGKGLEWVALVGYDGSQQFYGESVKGRFTISRDNSKNTLYLQMNSLRAEDTAVYYCNTGIPMLYWGQGTLVTVSS
VL: not shown
binding result [1]: no binding (tested: 1000 nM)
binding result [2]: no binding (tested: 1000 nM)

B3: 005S-B07 (Fab, V domains shown)
VH: QVQLVQSGAEVKKPGASVKVSCKASGFTFTSSAVQWVRQAPGQGLEWMGWMNPNSGNTGYAQKFQGRVTMTRDTSTSTVYMELSSLRSEDTAVYYCARGRGQQWLTGYYGMDVWGQGTTVTVSS
VL: DIQMTQSPSSLSASVGDRVTITCRASQGISSALAWYQQKPGKAPKLLIYGASTLQSGVPSRFSGSGSGTDFTLTISSLQPEDFATYYCLQDYNYPFTFGPGTKVDIKR
binding result [1]: no binding (tested: 1000 nM)
binding result [2]: no binding (tested: 1000 nM)

B4: 003S-D10 (Fab, V domains shown)
VH: EVQLVESGGGLVKPGGSLRLSCAASGFNFGIYSMTWVRQAPGKGLEWISYISGDSGYTNYADSVKGRFTISRDDSKNTLYLQMNSLKTEDTAVYYCARVGPGGWFDPWGQGTLVTVSS
VL: DIQMTQSPSSLSASVGDRVTITCRASQGISSYLAWYQQKPGKAPKLLIYAASNLLGGVPSRFSGSGSGTDFTLTISSLQPEDFATYYCQQTYSTPWTFGQGTKVEIKR
binding result [1]: no binding (tested: 1000 nM)
binding result [2]: no binding (tested: 1000 nM)

B5: 005S-A07 (Fab, V domains shown)
VH: QVQLVQSGAEVKKPGSSVKVSCKASGFTFTGSAVQWVRQAPGQGLEWVGGILPIYGTTKYAQKFQGRVTITADESTSTAYMELSSLRSEDTAVYYCARGARLYGFDYWGQGTLVTVSS
VL: EIVLTQSPATLSVSPGERATLSCRASQSVSRNLAWYQQKPGQAPRLLIYGASTRATGIPARFSGSGSGTEFTLTISSLQSEDFAVYYCQQRSNWPITFGQGTRLEIKR
binding result [1]: no binding (tested: 1000 nM)
binding result [2]: no binding (tested: 1000 nM)

B9: 001S-A04 mutant VHG10A (Fab, V domains shown)
VH: EVQLVQSGAEVKKPGASVKVSCKASGYTFTSYGISWVRQAPGQGLEWMGWISAYNGNTNYAQKLQGRVTMTTDTSTSTAYMELRSLRSDDTAVYYCASSKEKATYYYAMDVWGQGTTVTVSS
VL: QAVVLQEPSLSVSPGGTVTLTCGLSSGSVSTNYYPSWYQQTPGQAPRTLIYYTNTRSSDVPERFSGSIVGNKAALTITGAQPDDESVYFCLLYLGRGIWVFGGGTKLTVLG
KD [3]: ≤ 100 nM

B10: 001S-A04 mutant VLG7A (Fab, V domains shown)
VH: EVQLVQSGAEVKKPGASVKVSCKASGYTFTSYGISWVRQAPGQGLEWMGWISAYNGNTNYAQKLQGRVTMTTDTSTSTAYMELRSLRSDDTAVYYCASSKEKATYYYGMDVWGQGTTVTVSS
VL: QAVVLQEPSLSVSPGGTVTLTCGLSSGSVSTNYYPSWYQQTPGQAPRTLIYYTNTRSSDVPERFSGSIVGNKAALTITGAQPDDESVYFCLLYLGRAIWVFGGGTKLTVLG
KD [3]: ≤ 100 nM

B11: 001S-A04 mutant VHK4A (Fab, V domains shown)
VH: EVQLVQSGAEVKKPGASVKVSCKASGYTFTSYGISWVRQAPGQGLEWMGWISAYNGNTNYAQKLQGRVTMTTDTSTSTAYMELRSLRSDDTAVYYCASSKEAATYYYGMDVWGQGTTVTVSS
VL: QAVVLQEPSLSVSPGGTVTLTCGLSSGSVSTNYYPSWYQQTPGQAPRTLIYYTNTRSSDVPERFSGSIVGNKAALTITGAQPDDESVYFCLLYLGRGIWVFGGGTKLTVLG
KD [3]: ≤ 100 nM

B12: 001S-A04 mutant VHK2A (Fab, V domains shown)
VH: EVQLVQSGAEVKKPGASVKVSCKASGYTFTSYGISWVRQAPGQGLEWMGWISAYNGNTNYAQKLQGRVTMTTDTSTSTAYMELRSLRSDDTAVYYCASSAEKATYYYGMDVWGQGTTVTVSS
VL: QAVVLQEPSLSVSPGGTVTLTCGLSSGSVSTNYYPSWYQQTPGQAPRTLIYYTNTRSSDVPERFSGSIVGNKAALTITGAQPDDESVYFCLLYLGRGIWVFGGGTKLTVLG
KD [3]: ≤ 100 nM

B13: 001S-A04 mutant VLG5A (Fab, V domains shown)
VH: EVQLVQSGAEVKKPGASVKVSCKASGYTFTSYGISWVRQAPGQGLEWMGWISAYNGNTNYAQKLQGRVTMTTDTSTSTAYMELRSLRSDDTAVYYCASSKEKATYYYGMDVWGQGTTVTVSS
VL: QAVVLQEPSLSVSPGGTVTLTCGLSSGSVSTNYYPSWYQQTPGQAPRTLIYYTNTRSSDVPERFSGSIVGNKAALTITGAQPDDESVYFCLLYLARGIWVFGGGTKLTVLG
KD [3]: ≤ 100 nM

B14: 001S-A04 mutant VHV13A (Fab, V domains shown)
VH: EVQLVQSGAEVKKPGASVKVSCKASGYTFTSYGISWVRQAPGQGLEWMGWISAYNGNTNYAQKLQGRVTMTTDTSTSTAYMELRSLRSDDTAVYYCASSKEKATYYYGMDAWGQGTTVTVSS
VL: QAVVLQEPSLSVSPGGTVTLTCGLSSGSVSTNYYPSWYQQTPGQAPRTLIYYTNTRSSDVPERFSGSIVGNKAALTITGAQPDDESVYFCLLYLGRGIWVFGGGTKLTVLG
KD [3]: ≤ 100 nM

B15: 001S-A04 mutant VLI8A (Fab, V domains shown)
VH: EVQLVQSGAEVKKPGASVKVSCKASGYTFTSYGISWVRQAPGQGLEWMGWISAYNGNTNYAQKLQGRVTMTTDTSTSTAYMELRSLRSDDTAVYYCASSKEKATYYYGMDVWGQGTTVTVSS
VL: QAVVLQEPSLSVSPGGTVTLTCGLSSGSVSTNYYPSWYQQTPGQAPRTLIYYTNTRSSDVPERFSGSIVGNKAALTITGAQPDDESVYFCLLYLGRGAWVFGGGTKLTVLG
KD [3]: ≤ 100 nM

Now from value to binder:

binding result [1]: no binding (tested: 1000 nM)
binding result [2]: no binding (tested: 1000 nM)
B6: 004S-C09 (Fab, V domains shown)
VH: QVQLVQSGAEVKKPGASVKVSCKASGYTFTNNFMHWVRQAPGQGLEWMGGFDPEDGETIYAQKFQGRVTMTRDTSTSTVYMELSSLRSEDTAVYYCARVGRGYSFDYWGQGTLVTVSS
VL: not shown

binding result [1]: no binding (tested: 1000 nM)
binding result [2]: no binding (tested: 1000 nM)
B7: 004S-B08 (Fab, V domains shown)
VH: QVQLVQSGAEVKKPGASVKVSCKASGYTFTNNFMHWVRQAPGQGLEWMGRINPNSGGTNYAQKFQGRVTMTRDTSTSTVYMELSSLRSEDTAVYYCASQNYYGSGSYPGFDYWGQGTLVNVSS
VL: not shown

binding result [1]: no binding (tested: 1000 nM)
binding result [2]: no binding (tested: 1000 nM)
B8: 004S-A11 (Fab, V domains shown)
VH: QVQLVQSGAEVKKPGSSVKVSCKASGGTFSSYAISWVRQAPGQGLEWMGRIIPILGIANYAQKFQGRVTITADESTSTAYMELSSLRSEDTAVYYCARESVNNYYYMDVWGKGTTVTVSS
VL: not shown

binding result [1]: no binding (tested: 1000 nM)
binding result [2]: no binding (tested: 1000 nM)
B16: 004S-A12 (Fab, V domains shown)
VH: QVQLVQSGAEVKKPGASVKVSCKASGYTFTNNFMHWVRQAPGQGLEWMGRINPNSGGTNYAQKFQGRVTMTRDTSTSTVYMELSSLRSEDTAVYYCARGQGYSSGWYRGDAFDIWGQGTTVTVSS
VL: not shown

binding result [1]: no binding (tested: 1000 nM)
binding result [2]: no binding (tested: 1000 nM)
B17: 005S-E12 (Fab, V domains shown)
VH: QVQLVQSGAEVKKPGASVKVSCKASGYIFTDYYMHWVRQAPGQGLEWMGVIFPVYPTPDYAQKFQGRVTMTRDTSTSTVYMELSSLRSEDTAVYYCARGGSTGYYGMDVWGQGTTVTVSS
VL: DIQMTQSPSSLSASVGDRVTITCRASQSVGRWMAWYQQKPGKAPKLLIYAASSLQSGVPSRFSGSGSGTDFTLTISSLQPEDFATYYCQQANTFPFTFGPGTKVDIKR

binding result [1]: no binding (tested: 1000 nM)
binding result [2]: no binding (tested: 1000 nM)
B18: 017S-B09 (VHH)
VHH: AVQQVESGGGLVQPGGSLRLSCAASGFTLDYYAISWFRQAPGKKRELVADITSGGSTNYADSVKGRFTISRDNAKNTIYLQMNSLKPEDTAVYFCNAVTYNGYTIWGQGTQVTVSS

binding result [1]: no binding (tested: 1000 nM)
binding result [2]: no binding (tested: 1000 nM)
B19: 014S-A07 (Fab, V domains shown)
VH: EVQLVESGGGLVKPGGSLRLSCAASGFTFSNAQMSWVRQAPGKGLEWVSAIGTGGGTYYADSVKGRFTISRDDSKNTLYLQMNSLKTEDTAVYYCAREGSYYDWYFDLWGRGTLVTVSS
VL: EIVLTQSPATLSVSPGERATLSCRASQNIGSRLAWYQQKPGQAPRLLIYGASNRASGIPARFSGSGSGTEFTLTISSLQSEDFAVYYCQQYNHWPPLFTFGPGTKVDIKR
